The target of this assay is endogenous mTOR (mechanistic target of rapamycin) (mouse (endogenous in brain and MEFs)) (UniProt Q9JLN9). Description: co-IP; anti-mTOR on Protein G beads; whole brain lysates of wild type or Thorase KO mice in buffer A, 1% Triton X-100, with or without 2 mM ADP, ATP or ATPγS, 4 °C; immunoblot. A general note: A western blot detects proteins with antibodies after separation by electrophoresis.

Substance “endogenous S6K (from UniProt Q8BSK8 1-525) (enzyme)” yielded a percent dissociated from mTOR (Thorase KO brain) of 20% and a percent dissociated from mTOR (wild type brain) of 80%.

Source of the values: publication PMC9385847.
